Source: the DeepSol protein solubility set

Assay: soluble on expression in E. coli; label from the status in PepcDB or PDB records

Sequence | soluble on expression in E. coli
MSQEHESSFQDPSRDELIQQVKELQIINANQRPEKILQEAFEKINLLVITIDQDGLIVYANEAFLEVIGWEKQRLLGENWKEFLEPGKDKNKEEHIYTLIKKQGFIDQLKRKFLSKEGDYRTIKFNVVIHHPIGNDVHLTTLIGEDIT | not soluble
MSLGARELHAHLKGGAATVCRCWAVTRRDGTVFGFTDHDRDLTFEGRLFRAETGLTSSALQQTTGLSVDNAETVGALSHVSVTEADLLAGRFDGAEVLAWLVNWADVSERLLQFRGTLGEITHSGGRFRAELRGLTEALNQPQGRVYQRSCQAVLGDRACGFDLSAEEFATERAVETVVGRQSFSFEGLHSFPDRWFEQGRLVVMTGEAAGAMGVIKSDRRRGEVRTVELWEALGPQITVGDRVRLEAGCDRMAETCRLKFNNLRNFRGFPHLSGEDWLSAYPAATGTHDGGSLWEEGHHHHHH | soluble
MGSDKIHHHHHHMDTMVSNSQTYLKILADLIKIKSVNDHELEVAEYLQDLFQENGIEAKILPLEGQRANLVAEIGEGAPVLAVSGHMDVVDPGNLAAWDNDPFTMTEKDGKLFGRGITDMKAGLAALVIAMIELKKQGLPKKGTIRLLATAGEEVGEEGSAAFYRDHYMEDAAGLLIAEPSTVYGTASEQKGSFDIKFTSKGTSVHSSTPEKGYNALVPLMQLLNEANTYFETIPAGEMGPVRFNIDVLNGGSQINSLPDLATALVNVRTIPEYDNNQVAKQIETFVKSYNANGAQINTDLIMNEFPIATSPSNQLVKIIQSLGKEYAGRDIVVAASPGITDASNLAKDKPHDFPFAVYGPGDGSQHQVNESLPKQMYLDFIEIYQKLFIEFLEK | not soluble
MGSDKIHHHHHHMLYSFSRLVYRILTVVGVLDGRAAYKRRIQLTGRSTYIVSLPKEWVETWRLGRGSEVTLEVMPDGSLKIAPSASERPARRDRRVIDLRGKELDLSFVIKSVIASYLAGYDEVLLLFGDGSVDAVSKIRSIVESNILGFNVLEEGPGYIVFVSVVDHRSMEFSRALSRMARIAAEMIRDVARGLENGDRGLLDLVAERDQLVDKLYLYMARQMTMASSGRLPLKDLGVYSPAEIVHLFLAVKSIERVADHATILSVRVSASLGAGMSVENGLSSLVMEAAEGFSKSVEALIKADAGLAASIAPVLSEYRSRLESMTAQEFLRGGGSLLRYLVIDSMRRITGYSLDIAEAALDISAVREKAKSEGP | not soluble
MSFDKQNLIWIDLEMTGLDPEKERIIEIATIVTDKNLNILAEGPVLAVHQSDELLNKMNDWCQKTHSENGLIERIKASKLTERAAELQTLDFLKKWVPKGASPICGNSIAQDKRFLVKYMPDLADYFHYRHLDVSTLKELAARWKPEILEGFKKENTHLALDDIRESIKELAYYREHFMKLDLEHHHHHH | soluble
ACAWLEAQEEEEVGFPVRPQVPLRPMTYKAAVDLSHFLKEKGGLEGLIHSQRRQDILDLWIYHTQGYFPDWQNYTPGPGVRYPLTFGWCYKLVPVEPDKVEEANKGENTSLLHPVSLHGMDDPEREVLEWRFDSRLAFHHVARELHPEYFKN | soluble
MPHQSQPGFLLPAIQHHSMQGSLPGERDVTVVGGGFGGLAAAAYLARAGASVTLLEQHDTVGGRAGVLERDGFRFDTGPSWYLMPDVFERFFDHFDHDPHDFYELTRLDPQYRVFWTDGDSATIEPNRRNAHELFESYEEGAGDALATYLDRAATNYDLAMNRVVYPDRTAFRDYASTDMLPLASRLRLFGNMDDYVSRFFDHPKLRQLLEYTLVFLGGAPHNTPALYSIMSHVDLNGNVFYPEGGIAGVVDALAELAVEQGATIETGVGVNAISGRRGEFTLATDDGTRTTDLVVNNANPAYAERELLDTGGRDHAPDYWDDQTYAPSALMFYLGVEGDVEPLAHHSLVLPPDWDGHFAQLFDDPGWPDDPAFYLSVASKTDDTVAPDGHEAVVILLPIAPGLDDTPEIRAQYRDRLLGTLAAQTGVDLRDRIVVEESACVSEFSEQFGDPGGTALGLAHTLFQTGPLRPGKRDGPDGHYYVGAYTNPGIGMPMCLISGEHVTKAVIDDDPAASGSTDPLAVPGEFNFDTPTTAD | not soluble
MGSDKIHHHHHHMDKLDNYIVTILEKSITPRKSPFLHTILAGRRTGQAVQDAHLFQMQHLFGLVPNLKLNYLETRLKELMRQGIITVTENGYTVKQKPNFSFEMSFPSFHGFAFQQQVFAFFAHLRLAVQVVSNKHHAEKYYLPVIRDKKVQQFIKIWLQNQQQEDLADRLYIELIKWFNSLAVSRPEFLVERFSGGKLMGYTTEQIATKYQVEKWDVYFEVLHELHRLIAAIKESEEEWPLLASLIPNELMSLTSSAIKTYTLWAKGMDLEMIERIRNLKTSTIQDHFVEIRATLKEAQVPYLPEEELIQSINSRNWHLLRDIKAAFPDLDYYQIRLAVVSKEDEQ | not soluble
MSLGRIYRGVEVGDVALGGKTPEEAREIVLRRAEGALERVELRGGPEGEISFDARRMGIDYKVRETVQAAYAVGREGNLLERLGERLRAAYGTVQIEPRVDYRPSVARQRIEEVASRLDRPPRQAEVNVYGSEVDVVGSREGYRVDVEATMRSVGEAVEDMSGEARLVGRVLEPEYTTAEAERAAERARRALDGELVLTYEGRRWTVSPAAIGDSLDITARDGEFRVGVDRDRLRENLSGVYAAINQEPVEAGYEISGEQITVTPSRTGRAIQDEKLLGAIEEGIFEGRREYRIPVAVDRPELTTAEAERLKPTDLLATYQTNYLTYDDSPGRVENLEIASEAVDGTLLAPGEVFSFNELAAPLDYHDTKVIINGRVDTAEGGGLCQVSSTLYMAANLAGLDVIERHPHYAELPYIRPGFDATVWFGALDMKFKNTSPGYILIREWVDRSTGTVNAAIYGRPSGIEVDMRSEKVSETVDEEGNPVTTWITYQTVRKNGEVVFDGVLHKDVYKYLKPAAPDAEGHHHHHH | soluble
SRIVAPPKNYPDSSQHEWVSLTRISKNMQLAVIATEDQKFPHHYGVDFESLFDVISEAGDHGPSRGASTITQQAAKNVFLFPSHSYVRKAYELYFALLMELMWSKERILEVYLNVVEFGPGIYGAEAAAQNYFGVSAKQLSKWQAARLAVVLPNPYRIKVYPQSDYTARRTRWAMNQMSNLGSVQL | not soluble
IPNDILIVNPEAQGLVDGHKVIVKITKYPEGRMSAEGEVISILGHKNDPGMDILSIIYKYGIPQAFPEEVLQQAQNIPDEIDAGEIKNRRDLRDEPLVTIDGADAKDLDDAVHVSRLPNGNFKLGVHIADVSYYVKEKSPIDLEAAERGTSVYLVDRVIPMIPHRLSNGICSLNPQVDRLTLSCEMEITRDGQVVNHEIFQSVIRTNERMTYHDVNKILVEKEEELRNRYELLVPMFEDMEELAAILRKKRFGRGAIDFDFKEAKVLVDEEGKPSDVVIRERGVAEKLIEEFMLAANETVAEHFHWLKLPFMYRIHEDPDSEKLGRFLEFITNFGYVVRGTANTVHPRALQKLLEEVRGEPEEQVISTVMLRSMQQAK | not soluble
AKRYWNANLDTYHPKNVSQNRALLTIRVFVHNFNPEEGKGLTFVGSPGVGKTHLAVATLKAIYEKKGIRGYFFDTKDLIFRLKHLMDEGKDTKFLKTVLNSPVLVLDDLGSERLSDWQRELISYIITYRYNNLKSTIITTNYSLQREEESSVRISADLASRLGENVVSKIYEMNELLVIKGSDLR | soluble
SNAMTQQDFRTKVDNTVFGVRATALIVQNHKLLVTKDKGKYYTIGGAIQVNESTEDAVVREVKEELGVKAQAGQLAFVVENRFEVDGVSYHNIEFHYLVDLLEDAPLTMQEDEKRQPCEWIDLDKLQNIQLVPVFLKTALPDWEGQLRHIHLEE | soluble
MTAESPTIRLERYSERHVEGLTALYNDPAVARQVLQMPYQSVEQRRKRLHDSADDDRLLILVALHQGDVIGSASLEQHPRIRRSHSGSIGMGVAVAWQGKGVGSRLLGELLDIADNWMNLRRVELTVYTDNAPALALYRKFGFETEGEMRDYAVRDGRFVDVYSMARLRRVEGRVGE | soluble
SLAMAAGANVPLDKANVDLTDKASLQNGAKLFMNYCFACHSTQYQRYERVATDLDIPADLMKENLIFNPEAKIGDLMVNAMPPKQAANWFGAPPPDLTLVARVRGADWLYTYLRSFYVDPSRPFGVNNIVFPSVGMPHVLEELQGIPTPVYGTKMVDGEEVKVVVGTETNGTGELSEGEYDKAVGDLVNFLVYAGDP | not soluble
